Common to all, as to assay: fluorescence polarisation; 100 nM FITC-labeled phosphopeptide with increasing hsNbs1(384); room temperature, 15 min incubation; 25 mM HEPES pH 7.4, 150 mM NaCl, 1 mM EDTA, 2 mM DTT, 0.05% Tween20, 0.1% BSA; one-site model
Holding throughout (conditions): both partners purified

One assay concerns the target T1, hsNbs1(384) R28A (human, UniProt O60934 1-384, R28A).
T1 construct: source: E. coli BL21(DE3) pLacI, purified as the wild type
T1 sequence (looked up): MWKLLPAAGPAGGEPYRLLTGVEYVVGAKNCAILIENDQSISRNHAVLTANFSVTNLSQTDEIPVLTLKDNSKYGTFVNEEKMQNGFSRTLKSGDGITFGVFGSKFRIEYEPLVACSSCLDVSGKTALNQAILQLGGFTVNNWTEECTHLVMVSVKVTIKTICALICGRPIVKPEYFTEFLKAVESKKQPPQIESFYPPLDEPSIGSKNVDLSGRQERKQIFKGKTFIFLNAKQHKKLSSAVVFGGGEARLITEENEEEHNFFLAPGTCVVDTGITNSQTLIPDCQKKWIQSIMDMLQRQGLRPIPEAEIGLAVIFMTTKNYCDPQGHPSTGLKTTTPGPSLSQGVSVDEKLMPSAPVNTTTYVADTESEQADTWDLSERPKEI

For a further assay, the target named is T2, hsNbs1(384) K29A (human, UniProt O60934 1-384, K29A).
T2 construct: source: E. coli BL21(DE3) pLacI, purified as the wild type
T2 sequence (looked up): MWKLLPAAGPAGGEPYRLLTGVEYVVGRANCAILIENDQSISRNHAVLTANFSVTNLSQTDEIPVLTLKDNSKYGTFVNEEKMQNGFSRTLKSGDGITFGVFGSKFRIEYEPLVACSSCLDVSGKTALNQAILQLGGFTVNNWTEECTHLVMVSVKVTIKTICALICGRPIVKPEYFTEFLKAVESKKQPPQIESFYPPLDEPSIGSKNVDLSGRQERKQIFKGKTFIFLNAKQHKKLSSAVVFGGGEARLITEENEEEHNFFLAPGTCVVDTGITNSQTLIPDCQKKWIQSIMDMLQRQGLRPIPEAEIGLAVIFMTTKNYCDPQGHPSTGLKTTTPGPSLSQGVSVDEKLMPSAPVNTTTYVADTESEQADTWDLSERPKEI

Another assay concerns the target T3, hsNbs1(384) K125A (human, UniProt O60934 1-384, K125A).
T3 construct: source: E. coli BL21(DE3) pLacI, purified as the wild type
T3 sequence (looked up): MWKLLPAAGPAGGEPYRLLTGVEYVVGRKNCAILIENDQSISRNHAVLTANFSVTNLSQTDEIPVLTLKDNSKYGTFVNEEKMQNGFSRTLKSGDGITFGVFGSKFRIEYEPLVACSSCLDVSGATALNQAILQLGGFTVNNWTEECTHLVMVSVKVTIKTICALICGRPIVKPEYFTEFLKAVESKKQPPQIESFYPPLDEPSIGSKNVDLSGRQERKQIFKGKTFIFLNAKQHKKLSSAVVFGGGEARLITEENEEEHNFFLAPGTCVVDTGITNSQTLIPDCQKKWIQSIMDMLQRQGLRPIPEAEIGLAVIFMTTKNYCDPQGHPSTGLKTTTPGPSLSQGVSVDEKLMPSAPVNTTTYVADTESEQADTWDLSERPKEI

The target of a further assay is T4, hsNbs1(384) K160A (human, UniProt O60934 1-384, K160A).
T4 construct: source: E. coli BL21(DE3) pLacI, purified as the wild type
T4 sequence (looked up): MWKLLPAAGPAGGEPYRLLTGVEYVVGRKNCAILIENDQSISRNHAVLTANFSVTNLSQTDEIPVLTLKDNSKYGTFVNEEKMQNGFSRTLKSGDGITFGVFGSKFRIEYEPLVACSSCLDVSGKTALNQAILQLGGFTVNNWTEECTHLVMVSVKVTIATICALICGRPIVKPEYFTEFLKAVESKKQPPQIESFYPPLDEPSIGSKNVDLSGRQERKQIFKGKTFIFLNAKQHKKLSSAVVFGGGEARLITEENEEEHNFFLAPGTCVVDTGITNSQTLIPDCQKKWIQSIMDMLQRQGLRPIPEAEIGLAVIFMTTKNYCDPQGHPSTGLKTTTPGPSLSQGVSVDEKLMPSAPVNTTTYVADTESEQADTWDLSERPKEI

A further assay deals with T5, hsNbs1(384) S118G (human, UniProt O60934 1-384, S118G).
T5 construct: source: E. coli BL21(DE3) pLacI, purified as the wild type
T5 sequence (looked up): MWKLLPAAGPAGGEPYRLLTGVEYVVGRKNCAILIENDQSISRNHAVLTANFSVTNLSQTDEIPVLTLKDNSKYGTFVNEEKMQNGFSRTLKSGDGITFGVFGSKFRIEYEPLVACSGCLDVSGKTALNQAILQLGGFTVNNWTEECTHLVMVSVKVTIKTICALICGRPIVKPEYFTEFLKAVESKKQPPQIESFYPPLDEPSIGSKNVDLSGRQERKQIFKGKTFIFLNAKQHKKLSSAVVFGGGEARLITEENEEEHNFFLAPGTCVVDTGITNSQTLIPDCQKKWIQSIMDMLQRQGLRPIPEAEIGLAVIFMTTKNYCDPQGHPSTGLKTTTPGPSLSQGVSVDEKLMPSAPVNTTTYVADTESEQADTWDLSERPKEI

Square brackets hold non-standard residues; d marks the D form. Primed or numbered codes have the meaning given here. Ends that are not written are not given here. FITC′ = fluorescein isothiocyanate label; pT = C[C@@H](OP(=O)(O)O)[C@H](N)C(=O)O

On to {FITC′}-GGRYIPPN[pT]PENFWEVGFPEEQ [hsCtIP phosphopeptide R841YIPPNpTPENFWEVGFPEEQ860 with N-terminal FITC-Gly-Gly], for which the Kd with hsNbs1(384) R28A was 35.9 µM; with hsNbs1(384) K29A it was 26 µM; with hsNbs1(384) K125A, 39.6 µM; in the assay with hsNbs1(384) K160A, 133 µM; in the assay with hsNbs1(384) S118G it was 149 µM.
